Results on one protein are retold here after article PMC2873105 (Virology, 2010).

The data set concerns the molecule itself. The data set can be described thus: native gel or EMSA. (A gel shift assay detects complexes by their altered migration in electrophoresis.)

B1: MBP-Rep78 (adeno-associated virus type 2 Rep78 fused to MBP) (enzyme)
chain: MPGFYEIVIKVPSDLDGHLPGISDSFVNWVAEKEWELPPDSDMDLNLIEQAPLTVAEKLQRDFLTEWRRVSKAPEALFFVQFEKGESYFHMHVLVETTGVKSMVLGRFLSQIREKLIQRIYRGIEPTLPNWFAVTKTRNGAGGGNKVVDECYIPNYLLPKTQPELQWAWTNMEQYLSACLNLTERKRLVAQHLTHVSQTQEQNKENQNPNSDAPVIRSKTSARYMELVGWLVDKGITSEKQWIQEDQASYISFNAASNSRSQIKAALDNAGKIMSLTKTAPDYLVGQQPVEDISSNRIYKILELNGYDPQYAASVFLGWATKKFGKRNTIWLFGPATTGKTNIAEAIAHTVPFYGCVNWTNENFPFNDCVDKMVIWWEEGKMTAKVVESAKAILGGSKVRVDQKCKSSAQIDPTPVIVTSNTNMCAVIDGNSTTFEHQQPLQDRMFKFELTRRLDHDFGKVTKQEVKDFFRWAKDHVVEVEHEFYVKKGGAKKRPAPSDADISEPKRVRESVAQPSTSDAEASINYADRYQNKCSRHVGMNLMLFPCRQCERMNQNSNICFTHGQKDCLECFPVSESQPVSVVKKAYQKLCYIHHIMGKVPDACTACDLVNVDLDDCIFEQ
With B1, the binding result is “binds”.
